The nanobody polyreactivity screen of Harvey et al. (2022)

Experiment: yeast display, Sf9 membrane polyspecificity reagent, FACS + sequencing; frameworks hold sequencing errors
In short: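 Polyreactivity labels are assigned by the sorting gate from which each nanobody was recovered. The gates were low and high (top ~1%), set on anti-HA fluorescence for expression and streptavidin fluorescence for reagent binding. Before sorting, galactose-induced (36–48 hours) yeast display cells were stained for 1 hour at 4 °C with 10% biotinylated, detergent-solubilized Sf9 membrane reagent.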

Sequence	polyreactivity (PSR sort gate)
QVQLVESGGGLVQAGGSLRLSCAASGRIFYWYVMGWYRQAPGKERELVASISSGGGTNYADSVKGRFTISRDNAKNTVYLQMNSLKPEDTAVYYCAARAYPYYWTGQKQSRFGYWGQGTQVTVSS	high polyreactivity
QVQLVESGGGLVQAGGSLRLSCAASGRIFYYNAMGWFRQAPGQERELVAAITSGGSTNYADSVKGRFTISRDNAKNTVYLQMNSLTPEDTAVYYCNARRYGSPRSEVHYDYWGQGTQVTVSS	low polyreactivity
QVQLVESGGGLVQAGGSLRLSCAASGRIFYYNAMGWYRPAPGKVRELVAVMTGGGSTNYADSVKGRFTISRDNAKNTVYLQMNSLKPEDTAVYYCAARRAWGTKYHGYDYWGQGTQVTVSS	low polyreactivity
QVQLVESGGGLVQAGGSLRLSCAASGRIFYYNAMGWYRQAPGKERDLVAAITYSGTSTYYADSVKGRFTISRDNAKNTVYLQINSLKPEDTAVYYCAVDSTDQAPPTYDYWGQGTQVTVSS	low polyreactivity
QVQLVESGGGLVQAGGSLRLSCAASGRIFYYNAMGWYRQAPGKERELVAAISTRGTSTYYADSVKGRFTISRDNAKNTVYLQMNSLKPEDTAVYYCNRASGNWQSYLRYDYWGQGTQVTVSS	low polyreactivity
QVQLVESGGGLVQAGGSLRLSCAASGRIFYYNGMGWYRQAPGKERELVAAISSRGGSTYYADSVKGRFTISRDNAKNTVYLQMNSLKPEDTAVYYCAATLSDRYSWRPYGMYYWGQGTQVTVSS	high polyreactivity
QVQLVESGGGLVQAGGSLRLSCAASGRIFYYNSMGWYRQAPGKERELVAAIRRSGSRTYYADSVKGRFTISRDNAKNTVYFQMNSLIPEDTAVYYCAAKYASFGHHDSWGQGTQVTVSS	high polyreactivity
QVQLVESGGGLVQAGGSLRLSCAASGRIFYYNSMGWYRQAPGKERELVASITGSGGSTYYADSVKGRFTISRDNAKNTVYLQMNSLKPEDTAVYYFAKREYLYPFYYVAKYDYWGQGTQVTVSS	low polyreactivity
QVQLVESGGGLVQAGGSLRLSCAASGRIFYYNTMGWYRQAPGKARELVAAITTNGGSTYYADSVKGRFTISRDNAKNTVYLQMNSPKPEDTAVYYCNRDRYPYYYAYNYWGQGTQVTVSS	low polyreactivity
QVQLVESGGGLVQAGGSLRLSCAASGRIFYYTTMGWSRQAPGKERELVAAISVSGGSTYYADSVKGRFTISRDKAKNTVYLQRNSLKPEDTAVYYCNAKDWYFYRYDYWGQGTQVTVSS	low polyreactivity
QVQLVESGGGLVQAGGSLRLSCAASGRIFYYYAMGWYRQAPGKERELVADITWSGGSTYYADSVKGRFTISRDNAKNTVYLLRNSLKPEDTAVYYCNAVSFNYLLEYDYWGQGTQVTVSS	high polyreactivity
QVQLVESGGGLVQAGGSLRLSCAASGRIFYYYAMGWYRQAPRKERELVASINSGGSTYYADSVKGRFTISRDNAKNTVYLQMNSMKPEDTAVYYCAAGFQLVKGYLSGRAAYYYWGQGTQVTVSS	high polyreactivity
QVQLVESGGGLVQAGGSLRLSCAASGRIFYYYDMGWYRQAPGKERELVAAINYSGGSTYYADSVKGRFTISRDNAKNTVYLQMNSLKPEDTAVYYCAADGYYYYSYGTTDQDDYWGQGTQVTVSS	low polyreactivity
QVQLVESGGGLVQAGGSLRLSCAASGRIFYYYDMGWYRQAPGKERELVAAITYSDSSTYADSVKGRFTISRDNAKNTVYLQMNSLKPEDTAVYYCAADYVYPGVRLEMDYWGQGTQVTVSS	low polyreactivity
QVQLVESGGGLVQAGGSLRLSCAASGRIFYYYVMGWYRQAPGKERELVAVIDWSGGSTYYADSVKGRFTISRDNAKNTVYLQMNSLKPEDTAVYYCAKVWLNFSLAYEDYDYWGQGTQVTVSS	low polyreactivity
QVQLVESGGGLVQAGGSLRLSCAASGRIFYYYVMGWYRQAPGKERELVAVIDWSGGSTYYADSVKGRFTISRDNAKNTVYLQMNSLKPEDTGVYYCAKVWLKFSLAYEDYDYLGQGTQVTVSS	low polyreactivity
QVQLVESGGGLVQAGGSLRLSCAASGRIGYYVMGWYRQAPGKERELVAAISRSGDSTYYADSVKGRFTISRDNAKNTVYLQMNSLKPEDTAVYYCAAASGWRYFYKYDYWGQGTQVTVSS	high polyreactivity
QVQLVESGGGLVQAGGSLRLSCAASGRIIANYAMGWYRQAPGKEREVVAGISSGGSTNYADSVKGRFTISRDNAKNPVYLQMNSLKPEDTAVYYCAKDPAYRVSKYDYWGQGTQVTVSS	low polyreactivity
QVQLVESGGGLVQAGGSLRLSCAASGRIIAYNTMGWNRQAHWKERDWVAAISSRGGRTYYADSVKGRFTISRDNAKNTVYLEMNSLKPEDTAVYYCAAKYYRYGDPDRYDYWGQGTQVTVSS	high polyreactivity
QVQLVESGGGLVQAGGSLRLSCAASGRIIAYYAMGWSRQAPGKERELVAAINWNGGSTYYADSVKGRFTISRDNAKNTVYLQMNSLKPEDTAVYYCNAGRTYTALNGDYWGQGTQVTLSS	high polyreactivity
QVQLVESGGGLVQAGGSLRLSCAASGRIIDLNAMGWYRQAPGKERQLVAAISYSGGRTFYADSVKGRFTISRDNAKNTVYLQMNSLKPEDTAVYYCNARYGKPAYQYGMDYWGQGTQVTVSS	low polyreactivity
QVQLVESGGGLVQAGGSLRLSCAASGRIIDYYTMGWDRQAPGKERELVATITIVGITNYADSVKGRFTISRDNAKNTVYLQMNSLKPEDTAVYYCAADRADFFVIRTIDPYDYWGQGTQVTVSS	low polyreactivity

Sequence	polyreactivity (PSR sort gate)
QVQLVESGGGLVQAGGSLRLSCAASGRIIFAYTMGWYRQAPGKERELVAAISSSGSTYYADSVKGRFTISRDNAKNTVYLQMNSLKPEDTAVYYLRVQRRAYRYDYWGQGTQVTVTS	high polyreactivity
QVQLVESGGGLVQAGGSLRLSCAASGRIIGFNAMGWYRQAPGKERELVASIRTTGGSTRYADSVKGRFTISRDNAKNTVYLQMNSLKPEDTAVYYCAARSRLRYLYDYWGQVTQVTVSS	high polyreactivity
QVQLVESGGGLVQAGGSLRLSCAASGRIIGKNAMGWYRQAPGEERELVAAIRYNGGRTYYADSVKGRFTISRDNAKNTVYLQMNSLKPEDTAVYYCATRTYRVDPEFGYWGQGTQVTVSS	high polyreactivity
QVQLVESGGGLVQAGGSLRLSCAASGRIIGLYTMGWYRQAPGKERELVAAINIRGTRTYYADSVKGRFTISRDNAKNTVYLQMNSLKPEDTAVYYCAAASYRSGRYTFDYWGQGTQVTVSS	high polyreactivity
QVQLVESGGGLVQAGGSLRLSCAASGRIIGRYAMGWYRQAPGKERELVAGITIRGGSTYYADSVKGRFTISRDNAKNTVYLQMNSLKPEDTAVYYCAARHGSGFRYYPGHAGGYWGQGTQVTVSS	low polyreactivity
QVQLVESGGGLVQAGGSLRLSCAASGRIIGYNAMGWYRQAPGKERELVASIRYSGGSTYYADSVKGRFTISRDNAMNTVYLQMNSLKPEDTAVYYCATRVTYRRRFDYWGQGTQVTVSS	high polyreactivity
QVQLVESGGGLVQAGGSLRLSCAASGRIIGYYAMGWYRQAPGKERELVAAISRRGGSTYYADSVKGRFTISRDNAKNTVYLQMNSLKPEDTAVYYCATLTLESFSALYYWGQGTQVTVSS	low polyreactivity
QVQLVESGGGLVQAGGSLRLSCAASGRIIIRYAMGWYRQAPGKERELVAGISRRGGSTSYADSVKWRFTISRDNAKNTVYLQMNSLKPEDTAVYYCGADSQYKYDYWGQGTQVTVSS	high polyreactivity
QVQLVESGGGLVQAGGSLRLSCAASGRIIKRYAMGWYRQAPGKERELVAAISASGSSTYYADSVKGRFTISRDNAKNTVYLQMNSLKPEDTAVYYCAAWAYSPSASYDYWGQGTQVTVSS	high polyreactivity
QVQLVESGGGLVQAGGSLRLSCAASGRIINYYAMGWYRPAPGKERELVAGISWSGGSTSYADSVKGRFTISRDNAKNTVYLQMNSLKPEDTAVYYCAAGVFKAFYYWGQGTQVTVSS	low polyreactivity
QVQLVESGGGLVQAGGSLRLSCAASGRIIPKYAMGWYRQAPGKERELVAAISSSGGSTYYADSVKGRFTISRDNAKNTVYLQINSLKPEDTAVYYCNVDKATRYRYPGFDYWGQGTQVTVSS	high polyreactivity
QVQLVESGGGLVQAGGSLRLSCAASGRIIRINAMGWYRQAPGKERELVAAITRGGTTYADSVKGRFTISRDNAKNTVYLQMNSLKPEDTAVYYCNARTGRSPTGFRYWGQGTQVTVSS	high polyreactivity
QVQLVESGGGLVQAGGSLRLSCAASGRIIRWYAMGWYRQAPGKERELVAAISGSGGSTYYADSVKGRFTISRDNAKNTVYLQMNSLKPEDTAVYYCAAAYYRDSDRRYNYWGQGTQVTVSS	high polyreactivity
QVQLVESGGGLVQAGGSLRLSCAASGRIIRYYAMGWYRPAPGKERELVAGITTGGGSTYYADSVKGRFTISRDNAKNTVYLQMNSLKPEDTAVYYCAARYYTTYYWGQGTQVTVSS	high polyreactivity
QVQLVESGGGLVQAGGSLRLSCAASGRIISHNAMGWYRQAPGKERELVAVISNGGSTYYADSVKGRFTISRDNAKNTVYLQMNSLKPEDTAVYYCAARYTPQSGFYYRGQGTQVTVSS	low polyreactivity
QVQLVESGGGLVQAGGSLRLSCAASGRIISRNAMGWYRQAPGKERELVAAISGSGSRTFYADSVKGRFTISRDNAKNTVYLQMNSLKPEDTAVYYCAADRSSYSRFYYWGQGTQVTVSS	high polyreactivity
QVQLVESGGGLVQAGGSLRLSCAASGRIIYGYTMGWYRQAPGKERELVAVISRGGSTNYADSVKGRFSISRDNAKYTVYLQMNSLKPEDTAVYYCAATTKLPRGNYWYYYWGQGTQVTVSS	high polyreactivity
QVQLVESGGGLVQAGGSLRLSCAASGRIIYINAMGWYRQAPGKERELVAAISSDGNTNYADSVKGRFTISRDNAKNTVYLQMNSLKPEDTAVYYCNADVWFYYTFDYWGLGTQVTVSS	low polyreactivity
QVQLVESGGGLVQAGGSLRLSCAASGRIIYRYAMGWYRQAPGKERELVAAIRYSGGRTYYADSVKGRFTISRDNAKNTVYLQMNSLKPEDTAVYYCAADGQWYYARFRGGDYENDYWGQGTQVTVSS	low polyreactivity
QVQLVESGGGLVQAGGSLRLSCAASGRIKYNVMGWYRQAPGKEMELVAAITRSAGRTYYADSVKGRFSISRDNAKNTVYLQMNSLKPEHTGGYYCAAQAERYGYVYWGQGTQVTVSS	low polyreactivity
QVQLVESGGGLVQAGGSLRLSCAASGRILAANAMRWYRQAPGKERELVAAISWSGGRTYYADSVKGRFTISRDNAKNTVYLQMNSLKPEDTAVYYCASVRRYKMDYWGQGTQVTVSS	high polyreactivity
